The test system of this data set is UbG-DsRx.

The values that follow come from patent US20060105953.

Regarding caspase-3, the “red fluorescence (DsRed) in live transgenic zebrafish embryos” value was “A control embryo (FIG. 1b) injected with a construct where the linker does not contain a cleavage site doesn't express any detectable red fluorescence (FIG. 1c)”.
